In patent US12139520B2 (priority 2020, dated 2024):
Numbered stars: 1 amine (or outer) side, 2 acyl side, 3 side chain; on linkers, the order of the positions; unused ones are H or OH. Bridge positions count the residues as written; N and C are the ends. Square brackets hold non-standard residues; d marks the D form. Side chains are listed from the residue outwards. Ends that are not written are not given here. * marks the point of attachment. C20 diacid = O=C(O)CCCCCCCCCCCCCCCCCCC(=O)*; γGlu = O=C(O)[C@H](CCC(=O)[*:2])N[*:1]; Hyp = O=C(O)[C@@H]1C[C@@H](O)CN1; AEEA = NCCOCCOCC(=O)O

T1: hAMY3R (human, UniProt P30988)
T1 sequence 1: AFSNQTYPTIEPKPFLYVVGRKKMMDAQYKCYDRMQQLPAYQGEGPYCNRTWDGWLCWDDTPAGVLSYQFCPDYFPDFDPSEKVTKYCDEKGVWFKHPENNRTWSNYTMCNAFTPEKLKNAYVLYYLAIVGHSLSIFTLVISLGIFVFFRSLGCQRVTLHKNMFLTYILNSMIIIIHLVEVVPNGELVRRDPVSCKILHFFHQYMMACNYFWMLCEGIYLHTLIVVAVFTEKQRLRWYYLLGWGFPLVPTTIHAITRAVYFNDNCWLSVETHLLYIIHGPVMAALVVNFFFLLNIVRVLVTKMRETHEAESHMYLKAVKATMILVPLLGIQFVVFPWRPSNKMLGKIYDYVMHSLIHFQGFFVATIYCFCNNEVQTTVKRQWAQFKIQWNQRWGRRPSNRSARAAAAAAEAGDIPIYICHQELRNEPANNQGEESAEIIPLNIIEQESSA
T1 sequence 2: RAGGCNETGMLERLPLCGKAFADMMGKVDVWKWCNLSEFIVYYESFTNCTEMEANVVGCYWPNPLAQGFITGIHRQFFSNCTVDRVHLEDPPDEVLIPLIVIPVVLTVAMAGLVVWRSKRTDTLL


What was measured:
[1] = target: hAM1R (human, UniProt Q16602); assay: cell-based or functional assay
[2] = target: T1, hAMY3R; assay: cell-based or functional assay

| hAM1R EC50 (cAMP) [1] [nM] | hAMY3R EC50 (cAMP) [2] [nM] | Binder |
| --- | --- | --- |
| 10.3 | 0.017 | {C20 diacid-γGlu}-KCNFATCTVQRLAHQIYQFTDKDKDNVAPRTEVGSNGY-NH2 (disulfide 2-7 (inferred); ends not checked) [SEQ ID NO: 370] |
| 12 | 0.022 | GCRFGTCTVQRLAHFLYQFTDKDKDNVAPRTKIGSNGY [SEQ ID NO: 376] |
| > 5000 | 0.01 | {C20 diacid-γGlu}-KCNTATCTVNRLAHQIYQFTDKDKDNVAPPTNVGSNG[Hyp]-NH2 (disulfide 2-7 (inferred); ends not checked) [SEQ ID NO: 38] |
| 761 | 0.011 | {C20 diacid-γGlu}-KCNTATCTVQRLAHQIYQYTDKDKDNVAPPTNVGSNG[Hyp]-NH2 (disulfide 2-7 (inferred); ends not checked) [SEQ ID NO: 48] |
| 0.162 | 0.031 | {C20 diacid-γGlu}-GCRFATCTVQRLAHQIYQFTDKDKDNVAPRTKVGPQGY-NH2 (disulfide 2-7 (inferred); ends not checked) [SEQ ID NO: 380] |
| 3.94 | 0.02 | {C20 diacid-γGlu}-GCRFGTCTVQRLANQIYQFTDKDKDNVAPRTNVGPQGY-NH2 (disulfide 2-7 (inferred); ends not checked) [SEQ ID NO: 372] |
| > 5000 | 0.01 | KCNTATCTVQRLAEQIYQFTDKDKK([AEEA-AEEA-γGlu-C20 diacid])NVAPPTNVGSNG[Hyp]-NH2 (disulfide 2-7 (inferred); not fully specified (N-terminus); ends not checked) [SEQ ID NO: 40] |
| > 5000 | 0.01 | KCNTATCTVQRLAEQIYQFTDKDKDNVAPPYNEGSNG[Hyp]-NH2 (disulfide 2-7 (inferred); ends not checked) [SEQ ID NO: 44] |
| > 5000 | 0.01 | KCNTATCTVQRLAEQIYQFTDKDKDK([AEEA-AEEA-γGlu-C20 diacid])VAPPTNVGSNG[Hyp]-NH2 (disulfide 2-7 (inferred); not fully specified (N-terminus); ends not checked) [SEQ ID NO: 41] |
| 5.03 | 0.113 | {C20 diacid-γGlu}-GCRFGTCTVQRLAHFLYQFTDKDKDNVAPRTKVGPQGY-NH2 (disulfide 2-7 (inferred); ends not checked) [SEQ ID NO: 392] |
| 500 | 0.011 | {C20 diacid-γGlu}-KCNTATCTVQRLAYQIYQFTDKDKDNVAPPTNVGSNG[Hyp]-NH2 (disulfide 2-7 (inferred); ends not checked) [SEQ ID NO: 47] |
| > 5000 | 0.01 | KCNTATCTVQRLAHQIYQFTDKAKDNVAPPTNVGSNG[Hyp]-NH2 (disulfide 2-7 (inferred); ends not checked) [SEQ ID NO: 43] |
| 5.93 | 0.034 | GCRFGTCTVQRLAHQIYQFTDKDKDNVAPRSNISPNGY [SEQ ID NO: 383] |
| 50.5 | 0.011 | GCRFGTCTVQRLAHQIYQFTDKDKDNVAPRTKVGPQG[Hyp]-NH2 (disulfide 2-7 (inferred); ends not checked) [SEQ ID NO: 45] |
| 0.889 | 0.048 | {C20 diacid-γGlu}-GCRFGTCTVQRLAHFLYQFTDKDKDNVAPRTKIGPQGY-NH2 (disulfide 2-7 (inferred); ends not checked) [SEQ ID NO: 390] |
| 1.04 | 0.045 | {C20 diacid-γGlu}-KCNFATCATQRLANFLVQFTDKDKDNVAPRSKIGPQGY-NH2 (disulfide 2-7 (inferred); ends not checked) [SEQ ID NO: 389] |
| > 5000 | 0.01 | {C20 diacid-γGlu}-RCNTATCTVQRLAHQIYQFTDKDKDNVAPPTNVGSNG[Hyp]-NH2 (disulfide 2-7 (inferred); ends not checked) [SEQ ID NO: 39] |
| > 5000 | 0.01 | KCNTATCTVQRLAHQIYAFTDKDKDNVAPPTNVGSNG[Hyp]-NH2 (disulfide 2-7 (inferred); ends not checked) [SEQ ID NO: 42] |

| hAM1R EC50 (cAMP) [1] [nM] | hAMY3R EC50 (cAMP) [2] [nM] | Binder |
| --- | --- | --- |
| 78.5 | 0.011 | GCRFGTCTVQRLAHQIYQFTDKDKDNVAPRTNIGPQG[Hyp]-NH2 (disulfide 2-7 (inferred); ends not checked) [SEQ ID NO: 46] |
| 0.893 | 0.027 | {C20 diacid-γGlu}-KCNFATCTVQRLAHQIYQFTDKDKDNVAPRTKVGSNGY-NH2 (disulfide 2-7 (inferred); ends not checked) [SEQ ID NO: 378] |
| 4.01 | 0.043 | {C20 diacid-γGlu}-GCRFGTCTVQRLAHFLYQFTDKDKDNVAPRTNIGPQGY-NH2 (disulfide 2-7 (inferred); ends not checked) [SEQ ID NO: 388] |
| 7.35 | 0.039 | {C20 diacid-γGlu}-GCRFGTCTVQRLANFLYQFTDKDKDNVAPRTNVGPQGY-NH2 (disulfide 2-7 (inferred); ends not checked) [SEQ ID NO: 386] |
| 0.997 | 0.015 | GCRFGTCTVQRLAHQIYQFTDKDKDNVAPRTKVGPQGY [SEQ ID NO: 368] |
| 7.61 | 0.032 | GCRFGTCTVQRLAHQIYQFTDKDKDNVAPRTNIGPNGY [SEQ ID NO: 381] |
| 0.665 | 0.068 | GCRFGTCTVQRLAHQIYQFTDKDKDNVAPRTKIGPQGY [SEQ ID NO: 391] |
| 0.403 | 0.022 | GCRFGTCTVQRLAHQIYQFTDKDKDNVAPRSKVGPQGY [SEQ ID NO: 375] |
| 2.48 | 0.017 | GCRFGTCTVQRLAHFLYQFTDKDKDNVAPRTKVGPQGY [SEQ ID NO: 369] |
| 0.458 | 0.029 | GCRFGTCTVQRLAHQIYQFTDKDKDNVAPRTNIGPQGY [SEQ ID NO: 379] |
| 0.243 | 0.024 | GCRFATCTVQRLAHFLYQFTDKDKDNVAPRTKVGPQGY [SEQ ID NO: 377] |
| 3.03 | 0.019 | GCRFGTCTVQRLAHQIYQFTDKDKDNVAPRTKISPNGY [SEQ ID NO: 371] |
| 7 | 0.036 | GCRFGTCTVQRLAHQIYQFTDKDKDNVAPRTKVSPNGY [SEQ ID NO: 385] |
| 12 | 0.021 | GCRFGTCTVQRLAHQIYQFTDKDKDNVAPRSNVGPQGY [SEQ ID NO: 374] |
| 0.992 | 0.04 | GCRFGTCTVQRLAHQIYQFTDKDKDNVAPRSKIGPQGY [SEQ ID NO: 387] |
| 5.12 | 0.034 | GCRFGTCTVQRLAHQIYQFTDKDKDNVAPRSNIGPQGY [SEQ ID NO: 382] |
| 7.71 | 0.02 | GCRFGTCTVQRLAHQIYQFTDKDKDNVAPRSNVGPNGY [SEQ ID NO: 373] |
| 1.09 | 0.036 | GCRFGTCTVQRLAHQIYQFTDKDKDNVAPRSKVSPNGY [SEQ ID NO: 384] |
